Columns and labels:
[1] = target: ABCA1, endogenous in J774 murine macrophage cells (murine, UniProt P41233 1-2261); experiment: cell-based or functional assay
[2] = target: ATP binding cassette subfamily A member 1 (ABCA1), endogenous in ARPE-19 cells (human, UniProt O95477 1-2261); experiment: cell-based or functional assay
[3] = target: T1, Low Density Lipoprotein Receptor (LDLR), recombinant (UniProt P01130 22-788, limits assumed); experiment: SPR multi-cycle kinetics, immobilized LDLR, high surfactant preparation (HBS-P+), 1:1 model
T1 construct: also called Recombinant LDLR
Experimental: The table shown in FIG. 23 illustrates LDLR binding data (SPR), using a high surfactant preparation. Recombinant LDLR was diluted in 10 mM acetate buffer pH 4.5 and amine coupled to a CM5 chip at 1000 RU. Peptides were diluted to 5 μM in running buffer (HBS-P+, 1 mM CaCl2) and serially diluted 1:3 for 5 total concentrations. […] Between cycles, the chip surface was regenerated with 3 injections of 50 mM NaOH/100 mM EDTA. Multi-Cycle Kinetics was performed on a Biacore Insight Evaluation Software and binding kinetics were analyzed with a 1:1 binding model.

[4] = target: T1, Low Density Lipoprotein Receptor …; experiment: SPR multi-cycle kinetics, immobilized LDLR, low-surfactant preparation (HBS-P), peptide:DMPC complex against peptide alone
Experimental: Recombinant LDLR was diluted in 10 mM acetate buffer pH 4.5 and amine coupled to a CM5 chip at 1000 RU. Peptides were diluted to 5 μM in running buffer (HBS-P, 1 mM CaCl2) and serially diluted 1:3 for 5 total concentrations. In a separate preparation, peptides were diluted to 1 μM in running buffer containing 25 μM DMPC and serially diluted 1:3 for 5 total concentrations in running buffer. Peptide: DMPC complexes were incubated for 1 hour prior to use. […] Between cycles, the chip surface was regenerated with 3 injections of 50 mM NaOH/100 mM EDTA. Multi-Cycle Kinetics was performed on a Biacore Insight Evaluation Software and binding kinetics were analyzed with a 1:1 binding model.

ABCA1, endogenous in J774 murine macrophage cells, sequence (P41233 whole entry): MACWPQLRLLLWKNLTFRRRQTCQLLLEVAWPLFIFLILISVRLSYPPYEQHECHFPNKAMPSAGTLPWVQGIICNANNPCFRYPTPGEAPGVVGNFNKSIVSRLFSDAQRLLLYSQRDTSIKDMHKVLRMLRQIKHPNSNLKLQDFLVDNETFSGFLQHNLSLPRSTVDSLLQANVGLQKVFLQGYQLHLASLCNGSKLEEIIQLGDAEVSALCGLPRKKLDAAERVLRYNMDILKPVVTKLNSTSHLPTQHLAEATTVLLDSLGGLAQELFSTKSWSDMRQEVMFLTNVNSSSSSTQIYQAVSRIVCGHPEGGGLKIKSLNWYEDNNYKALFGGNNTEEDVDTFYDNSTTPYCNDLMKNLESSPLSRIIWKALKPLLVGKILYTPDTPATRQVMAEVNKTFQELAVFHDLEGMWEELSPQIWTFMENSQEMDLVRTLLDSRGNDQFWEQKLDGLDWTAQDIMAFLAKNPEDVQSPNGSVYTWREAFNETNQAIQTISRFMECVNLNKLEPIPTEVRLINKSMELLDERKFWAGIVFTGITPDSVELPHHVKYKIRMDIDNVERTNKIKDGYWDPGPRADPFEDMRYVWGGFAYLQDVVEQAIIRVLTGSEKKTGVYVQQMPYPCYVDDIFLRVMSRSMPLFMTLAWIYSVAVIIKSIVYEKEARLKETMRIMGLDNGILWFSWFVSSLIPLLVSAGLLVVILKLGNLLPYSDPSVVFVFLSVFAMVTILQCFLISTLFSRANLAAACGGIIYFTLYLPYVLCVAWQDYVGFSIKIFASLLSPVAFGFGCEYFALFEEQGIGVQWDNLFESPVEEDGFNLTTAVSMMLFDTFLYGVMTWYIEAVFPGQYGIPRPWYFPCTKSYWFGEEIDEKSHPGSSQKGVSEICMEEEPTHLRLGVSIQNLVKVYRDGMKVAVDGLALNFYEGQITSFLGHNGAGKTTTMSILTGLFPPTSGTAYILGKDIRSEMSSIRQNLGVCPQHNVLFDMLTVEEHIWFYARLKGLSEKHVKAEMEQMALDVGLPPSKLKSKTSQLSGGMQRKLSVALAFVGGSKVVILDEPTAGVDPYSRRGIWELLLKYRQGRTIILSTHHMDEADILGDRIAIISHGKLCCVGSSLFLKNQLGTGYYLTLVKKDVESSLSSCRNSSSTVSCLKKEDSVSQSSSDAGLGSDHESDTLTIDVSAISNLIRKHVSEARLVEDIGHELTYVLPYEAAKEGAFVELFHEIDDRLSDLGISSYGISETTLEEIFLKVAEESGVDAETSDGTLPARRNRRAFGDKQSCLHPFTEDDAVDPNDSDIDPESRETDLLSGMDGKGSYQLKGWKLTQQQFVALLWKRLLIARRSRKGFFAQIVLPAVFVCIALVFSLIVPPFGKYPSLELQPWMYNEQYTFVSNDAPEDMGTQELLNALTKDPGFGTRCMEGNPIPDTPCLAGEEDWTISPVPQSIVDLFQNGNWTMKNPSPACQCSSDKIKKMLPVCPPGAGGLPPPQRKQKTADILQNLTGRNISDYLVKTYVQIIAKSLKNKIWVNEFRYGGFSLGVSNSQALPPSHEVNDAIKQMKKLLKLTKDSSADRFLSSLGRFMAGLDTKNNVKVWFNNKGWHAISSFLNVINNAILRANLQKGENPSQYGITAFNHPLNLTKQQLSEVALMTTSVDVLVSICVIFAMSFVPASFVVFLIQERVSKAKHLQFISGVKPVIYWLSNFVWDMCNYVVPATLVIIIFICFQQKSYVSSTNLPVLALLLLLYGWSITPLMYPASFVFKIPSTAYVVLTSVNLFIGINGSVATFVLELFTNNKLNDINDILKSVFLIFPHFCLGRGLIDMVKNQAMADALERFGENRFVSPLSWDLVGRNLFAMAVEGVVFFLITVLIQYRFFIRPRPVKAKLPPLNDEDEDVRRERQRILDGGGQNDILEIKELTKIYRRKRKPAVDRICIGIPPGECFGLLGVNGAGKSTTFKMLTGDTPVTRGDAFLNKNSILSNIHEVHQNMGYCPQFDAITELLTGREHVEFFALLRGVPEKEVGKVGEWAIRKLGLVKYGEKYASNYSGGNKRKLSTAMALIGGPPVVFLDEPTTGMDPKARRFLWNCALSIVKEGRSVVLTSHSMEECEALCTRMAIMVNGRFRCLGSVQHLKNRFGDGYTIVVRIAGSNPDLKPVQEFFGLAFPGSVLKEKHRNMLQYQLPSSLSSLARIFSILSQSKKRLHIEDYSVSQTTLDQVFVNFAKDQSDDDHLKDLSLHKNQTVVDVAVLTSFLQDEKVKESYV
ATP binding cassette subfamily A member 1 (ABCA1), endogenous in ARPE-19 cells, sequence (O95477 whole entry): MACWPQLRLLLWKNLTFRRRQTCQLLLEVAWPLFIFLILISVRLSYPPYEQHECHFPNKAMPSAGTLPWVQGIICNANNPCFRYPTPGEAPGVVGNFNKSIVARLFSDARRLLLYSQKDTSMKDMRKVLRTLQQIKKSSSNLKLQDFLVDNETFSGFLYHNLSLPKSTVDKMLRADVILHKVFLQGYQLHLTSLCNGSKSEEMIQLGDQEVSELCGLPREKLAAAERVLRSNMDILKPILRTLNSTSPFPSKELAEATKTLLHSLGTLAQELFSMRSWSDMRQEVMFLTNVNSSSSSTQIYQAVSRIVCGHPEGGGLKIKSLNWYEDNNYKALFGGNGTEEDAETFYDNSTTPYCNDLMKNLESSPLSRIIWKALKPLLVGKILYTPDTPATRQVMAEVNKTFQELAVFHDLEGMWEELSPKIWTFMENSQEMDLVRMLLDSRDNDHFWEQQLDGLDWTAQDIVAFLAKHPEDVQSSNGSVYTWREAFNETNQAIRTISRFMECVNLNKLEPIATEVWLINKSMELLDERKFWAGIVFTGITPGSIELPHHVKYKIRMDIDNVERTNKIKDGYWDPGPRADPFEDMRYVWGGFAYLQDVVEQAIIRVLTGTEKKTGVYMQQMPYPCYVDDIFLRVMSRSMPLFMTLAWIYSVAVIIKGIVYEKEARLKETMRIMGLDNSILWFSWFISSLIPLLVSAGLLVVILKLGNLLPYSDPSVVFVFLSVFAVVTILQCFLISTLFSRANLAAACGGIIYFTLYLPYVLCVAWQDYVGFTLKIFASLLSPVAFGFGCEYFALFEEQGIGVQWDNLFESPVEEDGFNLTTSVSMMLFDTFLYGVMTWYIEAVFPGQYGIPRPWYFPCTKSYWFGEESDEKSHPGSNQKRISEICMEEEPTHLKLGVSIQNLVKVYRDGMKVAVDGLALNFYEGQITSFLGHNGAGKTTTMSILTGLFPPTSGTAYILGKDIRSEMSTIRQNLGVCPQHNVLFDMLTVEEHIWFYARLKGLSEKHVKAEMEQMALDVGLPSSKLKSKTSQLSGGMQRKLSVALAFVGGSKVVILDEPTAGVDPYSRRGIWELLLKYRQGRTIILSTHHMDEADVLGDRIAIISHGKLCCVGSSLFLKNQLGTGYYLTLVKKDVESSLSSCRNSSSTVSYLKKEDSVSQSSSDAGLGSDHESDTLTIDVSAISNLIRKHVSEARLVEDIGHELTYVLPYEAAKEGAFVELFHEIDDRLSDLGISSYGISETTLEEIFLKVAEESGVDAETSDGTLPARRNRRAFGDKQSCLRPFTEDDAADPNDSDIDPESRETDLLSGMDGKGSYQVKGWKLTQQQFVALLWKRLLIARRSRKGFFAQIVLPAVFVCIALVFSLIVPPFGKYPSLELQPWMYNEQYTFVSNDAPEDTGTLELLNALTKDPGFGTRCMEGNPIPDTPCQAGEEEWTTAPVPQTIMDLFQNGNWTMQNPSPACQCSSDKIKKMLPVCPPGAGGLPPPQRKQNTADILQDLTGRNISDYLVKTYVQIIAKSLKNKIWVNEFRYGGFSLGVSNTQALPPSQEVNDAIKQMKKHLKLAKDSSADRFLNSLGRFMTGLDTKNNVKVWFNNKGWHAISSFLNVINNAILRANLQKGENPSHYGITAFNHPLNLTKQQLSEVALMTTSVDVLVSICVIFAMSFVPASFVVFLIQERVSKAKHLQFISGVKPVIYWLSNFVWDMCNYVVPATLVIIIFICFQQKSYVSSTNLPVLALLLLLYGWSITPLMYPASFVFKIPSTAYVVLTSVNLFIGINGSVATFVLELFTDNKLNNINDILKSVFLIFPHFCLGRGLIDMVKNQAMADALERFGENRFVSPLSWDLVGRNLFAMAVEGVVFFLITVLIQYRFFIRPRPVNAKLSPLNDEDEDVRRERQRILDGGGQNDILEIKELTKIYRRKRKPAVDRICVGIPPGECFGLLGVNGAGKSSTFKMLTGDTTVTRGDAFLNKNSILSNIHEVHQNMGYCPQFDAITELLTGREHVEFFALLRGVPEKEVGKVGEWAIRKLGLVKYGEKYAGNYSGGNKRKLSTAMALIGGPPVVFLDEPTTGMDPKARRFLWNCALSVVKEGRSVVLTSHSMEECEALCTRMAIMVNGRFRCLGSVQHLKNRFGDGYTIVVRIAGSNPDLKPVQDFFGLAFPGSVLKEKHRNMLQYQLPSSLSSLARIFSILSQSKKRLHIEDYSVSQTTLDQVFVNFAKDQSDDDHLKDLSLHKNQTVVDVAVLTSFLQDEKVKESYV

Row | Binder | EC50, membrane ABCA1 stability in J774 cells (western blot of membrane ABCA1 after 8-Br-cAMP washout) [1] [µM] | EC50, membrane ABCA1 stability in ARPE-19 cells treated with mCRP (western blot) [2] [µM] | Kd [3] [µM] | change in LDLR binding in the presence of DMPC lipid [4] [fold]
1 | DAWERFRALFKELADYFR [T-087] | 1.51 | 4.6 |  | 
2 | RSGADALESALKELKRFIREWT [T-101] | 3.7 | 3.5 |  | 
3 | LASHLRKLRKRLLRDADDLQKRLAVYQAGAREGAER [T-046] |  |  | < 10 | 
4 | LARHLRKLRKRLARDADDLQKRLAVYQAGAREGAER [T-047] |  |  | < 10 | 
5 | LASHLRKLRKRLLRDGDKLQDRLAEYQARAKEAFDR [T-048] |  |  | < 10 | 
6 | LARHLRKLRKRLARDGDKLQDRLAEYQARAKEAFDR [T-049] |  |  | < 10 | 
7 | HLRKLRKRLLRDGDKLQDRLAEYQARAKEAFDR [T-040] |  |  | < 10 | 
8 | HLRRLRRRLLRDGDKLQDRLAEYQARAKEAFDR [T-041] |  |  | < 10 | 
9 | HLRKLRKRLLRDGDKLQKRLAEYQARAKEAFDR [T-052] |  |  | < 10 | 
10 | HLRKLRKRLLRDGDKLQDRLAEYQARAREAFDR [T-055] |  |  | < 10 | 
11 | HLRKLVKRLFRDGDKLQDRLAEYQARAKEAFDR [T-059] |  |  | < 10 | 
12 | HLRKLRKRLLRDGDKLYDRLAEYYARAKEAFDR [T-062] |  |  | < 10 | 
13 | HLRKLRKRLLRDADDLQKRLAEYQARAKEAFDR [T-064] |  |  | < 10 | 
14 | LASHLRKLRKRLLRSLVSQYFQTVTDYGKDLM [T-065] |  |  | < 10 | > 2
15 | LARHLRKLRKRLARSLVSQYFQTVTDYGKDLM [T-066] |  |  | < 10 | > 2
16 | T-068 (peptide) peptide: MEDVRGRLVQYRGEVQAMLGQSTEELRVRLASHLRKLRKRLLRDADDLQKRLAVYQA |  |  | < 10 | > 2
17 | T-069 (peptide) peptide: VRGRLVQYRGEVQAMLGQSTEELRVRLASHLRKLRKRLLRDADDLQKRLAVYQA |  |  | < 10 | 
18 | HLRKLRKRLLRSLVSQYRQTVTDYGKDL [T-110] |  |  | < 10 | > 2
19 | HLRKLRKRLLRSLVSQYFQTVTDYGKDL [T-109] |  |  | < 10 | > 2
20 | HLRKLVKRLLRSLVSQYRQTVTDYGEDL [T-111] |  |  | < 10 | > 2
21 | T-113 (peptide) peptide: WKDFGERVERALREQFEDLGQSTEELRVRLASHLRKLRKRLLRDADDLQKRLAVYQA |  |  | < 10 | > 2
22 | T-112 (peptide) peptide: YKDFGERVERALGRQLEMLGQSTEELRVRLASHLRKLRKRLLRDADDLQKRLAVYQA |  |  | < 10 | > 2
23 | T-114 (peptide) peptide: LKDFGERVARALREQFEDLGQSTEELRVRLASHLRKLRKRLLRDADDLQKRLAVYQA |  |  | < 10 | > 2
24 | T-115 (peptide) peptide: DHINKVQRKVTHEIERLFLGQSTEELRVRLASHLRKLRKRLLRDADDLQKRLAVYQA |  |  | < 10 | > 2
25 | T-116 (peptide) peptide: DAWERFRALFKELADYFRLGQSTEELRVRLASHLRKLRKRLLRDADDLQKRLAVYQA |  |  | < 10 | > 2
26 | LVQYRGEVQAMLGQSTEELRVRLASHLRKLRKRLLRDADDLQKRLAVYQA [T-070] |  |  |  | > 2
27 | T-117 (peptide) peptide: RSGADALESALKELKRFIREWTLGQSTEELRVRLASHLRKLRKRLLRDADDLQKRLAVYQA |  |  |  | > 2
